What was measured:
[1] = target: FLAG-NKX2-5 (mouse NKX2-5, pEF-FLAG-NKX2-5) (mouse) (UniProt P42582); assay: co-IP; protein extracts of COS-1 cells expressing FLAG-NKX2-5 (50 ug) and of COS-1 cells expressing GATA4 (30-84 ug) mixed; agarose bound anti-FLAG M2 antibody, overnight at +4°C in lysis buffer (20 mM Tris pH 7.5, 150 mM NaCl, 1 mM EDTA, 1 mM EGTA, 1% Triton X-100, 2.5 mM sodium pyrophosphate); immunoblot with anti-GATA4 and anti-NKX2-5; bands quantified, unspecific binding subtracted, normalized to input and to …
[2] = target: FLAG-NKX2-5 (mouse NKX2-5, pEF-FLAG-NKX2-5) (mouse) (UniProt P42582)

Sequence of UniProt P42582 (P42582 whole entry): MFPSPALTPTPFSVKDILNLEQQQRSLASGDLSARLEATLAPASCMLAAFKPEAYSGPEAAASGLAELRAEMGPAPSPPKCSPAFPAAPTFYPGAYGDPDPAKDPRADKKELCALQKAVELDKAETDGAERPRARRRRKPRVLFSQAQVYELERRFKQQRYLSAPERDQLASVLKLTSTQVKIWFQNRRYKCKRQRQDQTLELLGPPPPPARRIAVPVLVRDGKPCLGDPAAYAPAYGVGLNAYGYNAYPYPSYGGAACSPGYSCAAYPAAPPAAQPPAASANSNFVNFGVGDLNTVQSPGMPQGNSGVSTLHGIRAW

| Substance | percent decrease of binding vs wtGATA4 [1] | further results |
| --- | --- | --- |
| mouse GATA4 N272D (natural protein) | – | GATA4-NKX2-5 transcriptional synergy, 3xNKE luciferase reporter, COS-1 cells; reduction vs wtGATA4 [2]: 79% |
| mouse GATA4 N272S (natural protein) | – | GATA4-NKX2-5 transcriptional synergy, 3xNKE luciferase reporter, COS-1 cells; reduction vs wtGATA4 [2]: 65% |
| mouse GATA4 Q274H (natural protein) | 47% | – |
| mouse GATA4 R264A (natural protein) | 36% | – |
| mouse GATA4 R283A (natural protein) | 84% | – |
| mouse GATA4 V217Y (natural protein) | – | GATA4-NKX2-5 transcriptional synergy, 3xNKE luciferase reporter, COS-1 cells; vs wtGATA4-NKX2-5 [2]: 146%; percent increase of binding vs wtGATA4 [1]: 235% |

Further lines, with some results ahead:

| percent decrease of binding vs wtGATA4 [1] | Substance | further results |
| --- | --- | --- |
| 61% | mouse GATA4 K299A (natural protein) | – |
| 62% | mouse GATA4 M298Y (natural protein) | – |
| 91% | mouse GATA4 R283Q (natural protein) | – |
| 89% | mouse GATA4 R319C (natural protein) | – |

— publication PMC4671672
